Assay [1] concerns the target chimeric receptor consisting of the extracellular and membrane domain of VEGFR1 fused to the cytoplasmic domain of gp130, on 293A12 cells (UniProt P17948). Nature of the assay: cell-based or functional assay.
Assay [2] has as its target T1, VEGF-R2/Fc chimeric protein (R&D systems) (human, UniProt P35968 20-764).
T1 construct: Bought from R&D systems; not shown: human immunoglobulin Fc domain
Nature of the assay: SPR (Biacore 2000), VEGF-B167 immobilised, receptor injected. On the procedure: For control purposes binding of the receptors to VEGF-A₁₆₅ was also monitored. Both VEGF-B₁₆₇ and VEGF-A₁₆₅ were individually immobilised to a sensorchip using NHS/EDC chemistry according to the manufacturer's instructions. Briefly, 35 μl of NHS and EDC was injected onto the sensorchip at a flow rate of 5 μl/min to activate the sensor surface and enable covalent coupling of either VEGF-A₁₆₅ or VEGF-B₁₆₇. […] Post coupling, diaminoethane (50 mM, pH 9.0) was used to block any unbound activated sites on the sensor surface. Concentrated dimeric VEGF-B₁₆₇ (200 μg/ml) was diluted (1:10) in 20 mM sodium acetate and immobilized onto a separate channel on the sensorchip. Post coupling, diaminoethane (50 mM, pH 9.0) was used to block any unbound activated sites on the sensor surface.
At the end of each run, the surface of the sensorchip was regenerated using 2 cycles of phosphoric acid (0.1 M, 30 μl) at a flow of 50 μl/min. […] Both were diluted into 0.1% w/v BSA in PBS as a stock solution (50 μg/ml, storage −20° C.).
For orientation: In SPR one partner is held on a chip, and binding of the other changes the refractive index at the surface.

For assay [3], the target named is T2, VEGF-R1/Fc chimeric protein (R&D systems) (human, UniProt P17948 27-687, limits assumed).
T2 construct: Bought from R&D systems; also called VEGF-R1/Flt-1; soluble VEGFR1-Ig chimeric protein; not shown: human immunoglobulin Fc domain
T2 sequence (P17948 27-687 limits assumed, change not shown): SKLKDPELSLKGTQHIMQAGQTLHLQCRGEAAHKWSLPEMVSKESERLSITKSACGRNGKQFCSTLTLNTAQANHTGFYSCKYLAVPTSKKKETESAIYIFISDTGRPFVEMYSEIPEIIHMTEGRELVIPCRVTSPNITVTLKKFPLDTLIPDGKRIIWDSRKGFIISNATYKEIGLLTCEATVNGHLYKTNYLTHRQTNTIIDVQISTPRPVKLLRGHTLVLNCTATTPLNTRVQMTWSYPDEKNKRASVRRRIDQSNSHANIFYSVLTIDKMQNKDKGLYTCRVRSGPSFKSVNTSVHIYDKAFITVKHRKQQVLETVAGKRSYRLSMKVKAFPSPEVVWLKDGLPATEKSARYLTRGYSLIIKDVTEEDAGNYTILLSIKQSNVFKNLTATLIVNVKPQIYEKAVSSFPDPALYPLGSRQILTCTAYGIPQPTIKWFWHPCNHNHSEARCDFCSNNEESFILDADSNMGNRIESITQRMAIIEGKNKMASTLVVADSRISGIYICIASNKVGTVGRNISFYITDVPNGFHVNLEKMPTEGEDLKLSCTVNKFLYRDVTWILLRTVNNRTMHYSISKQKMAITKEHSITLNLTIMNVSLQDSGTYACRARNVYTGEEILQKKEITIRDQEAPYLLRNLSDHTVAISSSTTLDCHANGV
Nature of the assay: competition ELISA on captured VEGF-R1/Fc (100 ng/ml); competitor VEGF-A165 at 10 ng/ml, detected with biotinylated anti-VEGF-A165. The method, then:
3. […] Plates were incubated for 90 min at room temperature.
5. VEGF-A₁₆₅ was added (indicated concentration in Buffer 20) and incubated at room temp for 1 hr. In competition experiments, VEGF-B₁₆₇ was added 30 min prior to the addition of VEGF-A₁₆₅. A range of VEGF-B₁₆₇ concentrations were used to compete with VEGF-A₁₆₅ at a final concentration of 10 ng/ml.
7. Biotinylated anti-VEGF-A₁₆₅ (10 ng/ml in Buffer 20, 100 μl) was added and incubated for 1 hr.

Sequence of chimeric receptor consisting of the extracellular and membrane domain of VEGFR1 fused to the cytoplasmic domain of gp130, on 293A12 cells (P17948 other isoform, or with tags, fused parts or gaps mutant limits assumed): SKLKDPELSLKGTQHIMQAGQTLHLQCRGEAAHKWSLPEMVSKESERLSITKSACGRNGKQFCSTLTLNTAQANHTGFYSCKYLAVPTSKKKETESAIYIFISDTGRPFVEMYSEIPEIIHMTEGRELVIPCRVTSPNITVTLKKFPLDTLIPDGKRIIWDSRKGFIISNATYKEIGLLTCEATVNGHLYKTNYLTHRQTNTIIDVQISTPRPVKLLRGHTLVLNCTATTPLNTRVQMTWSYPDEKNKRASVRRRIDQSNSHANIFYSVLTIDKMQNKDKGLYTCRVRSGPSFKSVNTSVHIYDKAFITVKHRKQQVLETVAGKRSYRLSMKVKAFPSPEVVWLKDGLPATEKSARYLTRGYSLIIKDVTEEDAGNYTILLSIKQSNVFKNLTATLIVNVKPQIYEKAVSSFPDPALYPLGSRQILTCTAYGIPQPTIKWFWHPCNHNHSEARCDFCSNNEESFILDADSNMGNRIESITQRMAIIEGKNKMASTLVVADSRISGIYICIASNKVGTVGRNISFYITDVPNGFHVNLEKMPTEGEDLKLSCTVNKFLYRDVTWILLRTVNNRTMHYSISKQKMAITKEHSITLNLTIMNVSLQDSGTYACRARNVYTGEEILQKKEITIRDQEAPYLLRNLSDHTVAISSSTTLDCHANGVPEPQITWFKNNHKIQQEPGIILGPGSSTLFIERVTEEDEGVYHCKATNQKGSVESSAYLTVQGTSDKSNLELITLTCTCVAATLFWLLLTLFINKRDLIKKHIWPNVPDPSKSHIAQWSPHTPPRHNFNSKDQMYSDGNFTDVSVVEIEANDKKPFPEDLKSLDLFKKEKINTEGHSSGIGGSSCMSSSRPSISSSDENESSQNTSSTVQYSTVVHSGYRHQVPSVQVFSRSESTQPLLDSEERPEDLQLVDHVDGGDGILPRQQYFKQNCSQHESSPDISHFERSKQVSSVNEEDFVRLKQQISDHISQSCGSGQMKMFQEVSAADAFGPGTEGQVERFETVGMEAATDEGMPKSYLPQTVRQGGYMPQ
T1 sequence (P35968 20-764 limits assumed, change not shown): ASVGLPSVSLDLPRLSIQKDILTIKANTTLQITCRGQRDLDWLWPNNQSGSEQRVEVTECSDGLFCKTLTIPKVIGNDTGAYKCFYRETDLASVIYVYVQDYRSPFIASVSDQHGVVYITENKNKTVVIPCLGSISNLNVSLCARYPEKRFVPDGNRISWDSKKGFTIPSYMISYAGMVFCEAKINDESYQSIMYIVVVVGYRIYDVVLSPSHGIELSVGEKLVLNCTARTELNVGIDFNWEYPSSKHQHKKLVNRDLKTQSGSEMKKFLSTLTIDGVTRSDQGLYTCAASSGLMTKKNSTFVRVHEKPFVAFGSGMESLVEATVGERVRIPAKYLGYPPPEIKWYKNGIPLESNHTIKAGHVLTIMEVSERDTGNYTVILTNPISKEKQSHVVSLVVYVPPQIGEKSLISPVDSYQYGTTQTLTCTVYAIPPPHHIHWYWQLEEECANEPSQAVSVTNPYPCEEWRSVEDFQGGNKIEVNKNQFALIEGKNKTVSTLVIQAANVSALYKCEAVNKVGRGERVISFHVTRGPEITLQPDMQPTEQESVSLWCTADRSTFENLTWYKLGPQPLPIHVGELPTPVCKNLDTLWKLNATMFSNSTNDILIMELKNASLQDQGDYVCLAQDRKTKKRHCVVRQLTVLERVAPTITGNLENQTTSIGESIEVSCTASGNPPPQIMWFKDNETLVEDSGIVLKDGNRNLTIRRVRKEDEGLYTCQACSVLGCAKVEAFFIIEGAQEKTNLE

With “VEGF-A (commercially available recombinant protein, Example 28) (from UniProt P15692 27-191) (ligand)”, the ED50 of luciferase production in 293A12 cells with the chimeric receptor in assay [1] lay within 0.01 to 0.05 µg/mL.

B1: purified refolded dimeric VEGF-B167 (ligand, human, UniProt P49765-2 22-188, looked up, not shown: small tags and cut ends)
chain: PVSQPDAPGHQRKVVSWIDVYTRATCQPREVVVPLTVELMGTVAKQLVPSCVTVQRCGGCCPDDGLECVPTGQHQVRMQILMIRYPSSQLGEMSLEEHSQCECRPKKKDSAVKPDSPRPLCPRCTQHHQRPDPRTCRCRCRRRSFLRCQGRGLELNPDTCRCRKLRR
notes: mature
With B1, the binding result in assay [2] is on record as “no binding”. In assay [3], this molecule returned an IC50 of approximately 0.02 µg/mL.

For orientation: IC50 means the concentration that inhibits the measured activity by half.

For the origin of these results see patent US20040137588A1 (published 2004).
